10 molecules from paper PMC6833008 (Molecules, 2019) can be followed below.

Values joined by “and” are separate entries in the source; they are usually repeats but may differ in a detail not shown here. Identical values can stand only once. Like-named read-outs stand apart in the source and are kept apart here. Ends that are not written are not given here.

Assay [1] addresses T1, Recombinant human PD-1 protein (Homo sapiens, UniProt Q15116).
T1 construct: purchased Abcam (Cambridge, UK)
In words: SPR binding of peptides or PD-L1 to immobilized PD-1 (Biacore X100). As for the experimental part:
Peptides of lyophilized powder were dissolved in sterile milli-Q H2O to a stock concentration of 1 mM for use in surface plasmon resonance (SPR) analysis. […] All synthetic peptides and proteins were equally packaged to avoid repeated freeze–thaw cycles.
The HBS-EP buffer (10×) was diluted 10-fold with sterile deionized water, filtered through a 0.22-μm membrane filter, and degassed immediately before the experiment as running buffer with a flow rate of 30 μL/min for the instrument system. The purified active PD-1 was diluted by 10 mM sodium acetate solution at pH 4.5, resulting in a protein concentration of 50 μg/mL. Coupling conditions were determined by protein isoelectric points and previous reports. The diluted protein was immobilized on the surface of a CM5 sensor chip via the primary amine group, employing a standard Amine Coupling Kit, and the target immobilization level was 5000 response units (RUs). The flow cell 1 […] any modification was used as a reference to correct the system error. The RU values were collected, and all the binding affinity data was calculated by kinetic models (1:1 interaction) within Biacore X100 Evaluation Software.
Each concentration was injected into the channel for 120 and 150 s for dissociation. Then, 10 mM glycine 3.0 or glycine 2.5 was utilized to regenerate the sensor chip surface. The equilibrium dissociation constant (KD) was calculated to evaluate the ability of peptides to interact with PD-1.
On the technique in general: SPR reads the build-up and loss of mass on a sensor chip optically.

For assay [2], the target named is T2, Recombinant human PD-1 protein (programmed cell death protein 1) (human, UniProt Q15116 25-170).
T2 construct: programmed cell death protein 1 (PD-1), human, recombinant, bought from Abcam; the results speak of the immobilised ectodomain; also called hPD-1; CD279; source: bought: Abcam
As to the kind of experiment: SPR; Biacore X100, 25 °C; PD-1 amine-coupled to a CM5 chip (target 5000 RU); peptide as analyte in HBS-EP buffer pH 7.4 (2-64 μM WANG-003, 1-16 μM WANG-004, 1.5625-100 μM WANG-005), 30 μL/min, 120 s injection, 150 s dissociation; regeneration 10 mM glycine 3.0 or 2.5; 1:1 kinetic model; three single runs. The conditions noted are these: both partners purified.
T2 sequence (Q15116 25-170): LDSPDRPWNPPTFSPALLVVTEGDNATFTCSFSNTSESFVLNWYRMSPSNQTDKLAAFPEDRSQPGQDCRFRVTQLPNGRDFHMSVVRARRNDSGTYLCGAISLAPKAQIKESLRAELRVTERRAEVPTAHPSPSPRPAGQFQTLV

Assay [3] concerns the target T3, Recombinant human PD-1 protein (programmed cell death protein 1) (human, UniProt Q15116 25-170).
T3 construct: Programmed cell death protein 1 (PD-1), human, recombinant, bought from Abcam; the results call the immobilised protein an ectodomain; No catalogue number, limits or tags are printed; The UniProt ID Q15116 is printed for the docking model, not for the bought protein; also called CD279; purified active PD-1; source: bought: Abcam
In words: SPR; Biacore X100, 25 °C; PD-1 immobilised on a CM5 chip by amine coupling (target 5000 RU); peptides as analytes in HBS-EP (2–64 μM WANG-003, 1–16 μM WANG-004, 1.5625–100 μM WANG-005, 62.5–1000 μM WANG006, 3.125–100 μM WANG007), 120 s injection and 150 s dissociation; 30 μL/min; 1:1 kinetic model. To be noted: both partners purified.
T3 sequence (Q15116 25-170): as above

One may read the kon as the second-order rate constant of association. As usually defined, the Kd is the constant that tells how readily two partners part at equilibrium. A word on the koff: it is a measure of how fast the partners let go of each other.

T1 sequence (Q15116 25-170 limits assumed): as the sequence (Q15116 25-170) above

On to “FRWWR-NH2 (C-terminus assumed) [WANG-004, FRWWR-NH2]”, for which the results for the “binding affinity to PD-1 (in words)” value in assay [1] and in assay [1] (listed as FRWWR-NH2) were “moderate affinity” and “moderate binding affinity”, respectively.

In the case of “KRWWR-NH2 (C-terminus assumed) [WANG-003, KRWWR-NH2]”, the “binding affinity to PD-1 (in words)” value in assay [1] was “moderate affinity”.

As for RRWQWR-NH2 [WANG-005, RRWQWR-NH2], the “binding affinity to PD-1 (in words)” value in assay [1] was “moderate affinity”.

Consider YVAE-NH2 [WANG-007], for which the “binding affinity to PD-1 (in words)” value in assay [1] is “did not show binding affinities”.

On to YVAM-NH2 [WANG-006], for which the “binding affinity to PD-1 (in words)” value in assay [1] was “did not show binding affinities”.

As for RRWQWR-NH2 [WANG-005 (RRWQWR-NH2)], the on-rate constant (kon) in assay [2] is 658 M⁻¹ s⁻¹ and 436 M⁻¹ s⁻¹ and 494 M⁻¹ s⁻¹.

B1: WANG-003 (KRWWR-NH2) (peptide)
peptide: KRWWR-NH2
notes: in-house synthetic peptide; source: synthetic peptide
For the molecule B1, in assay [2], the Kd is 2100 nM and 4610 nM and 3350 nM; the koff was 0.00258 s⁻¹ and 0.00446 s⁻¹ and 0.00365 s⁻¹; the on-rate constant (kon) is 1230 M⁻¹ s⁻¹ and 967 M⁻¹ s⁻¹ and 1090 M⁻¹ s⁻¹.

B2: WANG-004 (FRWWR-NH2) (peptide)
peptide: FRWWR-NH2
notes: as for B1
Turning to B2, in assay [2], the equilibrium dissociation constant (Kd) was 1380 nM and 2070 nM and 1450 nM; the dissociation rate constant (koff) was 0.00383 s⁻¹ and 0.00438 s⁻¹ and 0.00401 s⁻¹; the kon is 2770 M⁻¹ s⁻¹ and 2120 M⁻¹ s⁻¹ and 2760 M⁻¹ s⁻¹.

B3: WANG-003 (peptide)
peptide: KRWWR-NH2
notes: in-house synthetic peptide; also called KRWWR-NH2; KRWWR; source: synthetic peptide (solid phase, HPLC purified)
Consider B3, for which, in assay [3], the equilibrium dissociation constant (Kd) stood at 3350 ± 1030 nM.

B4: WANG-004 (peptide)
peptide: FRWWR-NH2
notes: in-house synthetic peptide; also called FRWWR-NH2; FRWWR; source: synthetic peptide (solid phase, HPLC purified)
In the case of B4, the Kd in assay [3] is 1630 ± 309 nM.
